Measured values from article PMC3616739.

Target: GST-LEDGF PWWP (UniProt O75475 1-100)
Experiment: EMSA

GST-LEDGF PWWP, sequence (O75475 1-100): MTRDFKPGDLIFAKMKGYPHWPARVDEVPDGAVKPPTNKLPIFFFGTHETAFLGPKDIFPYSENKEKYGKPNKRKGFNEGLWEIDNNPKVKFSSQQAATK

Row | Binder | Kd
1 | SMYD1 DNA 40 bp (dsDNA) DNA 1: CAGGCTGGTCTTGAACTCCTGACCTCAGATGATCCATGTG DNA 2: CACATGGATCATCTGAGGTCAGGAGTTCAAGACCAGCCTG | ~1.5 µM
2 | non-specific DNA 40 bp (dsDNA) DNA 1: CTGCAGAAGCTTGGTGCCGGGGCCGCTCAATTGGTCGTAG DNA 2: CTACGACCAATTGAGCGGCCCCGGCACCAAGCTTCTGCAG | ~1.5 µM
